According to patent US9540337B2, “Gamma-glutamyl transpeptidase inhibitors and methods of use” (The Board of Regents of the University of Oklahoma, priority 2012, dated 2017):

How the values were obtained:
[1] = system: T1, N[C@H](CCC(=O)Nc1ccc([N+](=O)[O-])cc1)C(=O)O; assay: Initial rate studies with D-GpNA and L-GpNA, with or without acceptor GlyGly; format: biochemical, human; details: pH 7.4, 37.0 °C
T1 construct: lacking the transmembrane domain; made in house; host or cells: Pichia pastoris
Description: (§1) Transpeptidation Reaction: The same assay buffer was used for both the hydrolysis reaction and the transpeptidation reaction. The transpeptidation reaction included 40 mM glycylglycine (glygly, Sigma, St. Louis, Mo.) as the acceptor. The concentration of the substrate for the transpeptidation reaction, L-GpNA (Sigma) was varied from 0.25 mM to 3 mM. The concentration of L-GpNA was 3 mM for experiments in which the concentration of glygly was varied. To initiate the transpeptidation reaction, 4 mU GGT were added.
(§2) 1. […] 2, which describes a ping pong kinetic mechanism. […] 3 and 4. […] 5 (25).
(§3) In eq. […] Data for noncompetitive inhibition were fitted to eq. 6. […] 6 [25].
(§4) Initial Rate Studies with D-GpNA and L-GpNA: In this study, the inhibition of both the GGT hydrolysis and transpeptidation reactions by OU749 and a new series of thiadiazol sulfonamide analogs was studied. The hydrolysis and transpeptidation reactions were analyzed separately by using different stereo-isomers of the γ-glutamyl-p-nitroanilide (GpNA) substrate. The kinetics of both reactions were first characterized in the absence of inhibitors. Cleavage of the γ-glutamyl bond of either D-GpNA or L-GpNA releases p-nitroanaline, which has an OD405 of 7,680 M^−1 cm^−1, allowing for the reactions to be monitored continuously with high sensitivity. The D-glutamyl isomer of GpNA was used as the substrate for the hydrolysis reaction, in which water serves as the acceptor. The L-glutamyl isomer of GpNA, with glycylglycine (GlyGly) as an acceptor, was used for the transpeptidation reaction. L-GpNA can serve as both a substrate and a low affinity acceptor, while D-GpNA is unable to serve as an acceptor (18, 21, 26). Therefore, in the absence of an added acceptor GGT exclusively catalyzes a hydrolysis reaction with D-GpNA as the substrate. When L-GpNA is used as a substrate, the GGT reaction is a mixture of both the hydrolysis and transpeptidation reactions. Under these conditions, the rate of the reaction is the sum of hydrolysis and transpeptidation reactions, with the hydrolysis reaction contributing more at low L-GpNA concentrations and transpeptidation dominating at saturating substrate concentrations. […] However, the maximum rate (Vmax) obtained with L-GpNA was approximately 3-times faster than that measured with D-GpNA, and the KGpNA for L-GpNA was 5-times higher than that measured for D-GpNA. This is at least partially due to the ability of L-GpNA to serve as an acceptor, resulting in a transpeptidation reaction, which is faster than the hydrolysis reaction. Therefore, to study the hydrolysis reaction in isolation, D-GpNA was used as the substrate without any added acceptor.

[2] = system: T2, N[C@@H](CCC(=O)Nc1ccc([N+](=O)[O-])cc1)C(=O)O; assay: as above; format: biochemical, human; details: pH 7.4, 37.0 °C
T2 construct: lacking the transmembrane domain; made in house; host or cells: Pichia pastoris
Description: as §1, §2, §3, §4

Sequence of Human GGT1 (Homo sapiens) (chain, as listed by the source): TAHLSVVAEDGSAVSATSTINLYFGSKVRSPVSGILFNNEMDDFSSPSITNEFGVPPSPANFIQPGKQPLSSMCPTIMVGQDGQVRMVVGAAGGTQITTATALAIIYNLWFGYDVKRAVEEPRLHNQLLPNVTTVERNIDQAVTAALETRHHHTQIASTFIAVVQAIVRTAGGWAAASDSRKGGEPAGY
Sequence of Human GGT1 (Homo sapiens) (chain, as listed by the source): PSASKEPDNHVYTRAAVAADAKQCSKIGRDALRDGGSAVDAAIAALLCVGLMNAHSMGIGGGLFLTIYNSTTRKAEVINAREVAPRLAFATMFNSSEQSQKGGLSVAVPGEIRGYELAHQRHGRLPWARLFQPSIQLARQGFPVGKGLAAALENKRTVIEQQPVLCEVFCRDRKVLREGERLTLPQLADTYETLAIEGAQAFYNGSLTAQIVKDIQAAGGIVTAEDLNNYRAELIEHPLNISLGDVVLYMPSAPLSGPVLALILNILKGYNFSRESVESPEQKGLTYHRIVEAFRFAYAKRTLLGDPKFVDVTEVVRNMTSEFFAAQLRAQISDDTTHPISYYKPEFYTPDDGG

Substance: Human GGT1 (Homo sapiens)
- Km ([1]; other: minus acceptor): 0.16 ± 0.02 mM
- Km ([1]; other: plus acceptor GlyGly): 4.2 ± 0.1 mM
- Km ([2]; other: minus acceptor): 0.83 ± 0.06 mM
- Km ([2]; other: plus acceptor GlyGly): 1.2 ± 0.1 mM
